# Data: paper PMC11743104, “Potent human antibodies against SpA5 identified by high-throughput single-cell sequencing of phase I clinical volunteers’ B cells” (iScience, 2024)
# T1: KLH-(N847-S857) (Staphylococcus aureus, protein A …)
# T1 construct: stretch N847-S857 of SpA5; they were put together from the eleven consecutive residues in the docking list; also called synthetic peptide N847-S857; source: synthetic peptide, coupled to keyhole limpet hemocyanin (KLH)
# T1 chain: NEEQRNGFIQS
# Assays:
# KLH-(N847-S857) = target: T1, KLH-(N847-S857); experiment: ELISA; KLH-(N847-S857) coated at 2 ug/mL; Abs-9 from 2 ug/mL in PBST, diluted in half; 37 C 1 h; goat anti-human IgG Fc-HRP, OD450; SpA5 positive control, KLH negative control; settings: both partners purified
# [1] = target: T2, mutant staphylococcal protein A (SpA5) (Staphylococcus aureus, recombinant …, point mutant); experiment: BLI; Octet RED96, room temperature, PBS with 0.01% Tween 20; Abs-9 (8 ug/mL) loaded on Pro A biosensor; SpA5 in double dilutions 53 uM to 6.63 uM, 600 s association, 600 s dissociation; settings: both partners purified
# T2 construct: staphylococcal protein A, mutant 'pentameric form' (SpA5), component of the recombinant five-component S. aureus vaccine; The residue numbers printed for SpA5 (E790 to N893) come from the docked model; also called antigen SpA5; pentameric form of S. aureus protein A; source: recombinant antigenic protein (vaccine component of rFSAV)
# [2] = target: T3, S. aureus protein A in MRSA252 bacterial fluid (Staphylococcus aureus MRSA252 (stand-in …, UniProt P02976, strain)); experiment: affinity purification with mass spectrometry; supernatant of ultrasonically fragmented MRSA252 incubated overnight with Abs-9 (200 uL, 8 mg/mL), bound to Protein A beads 2 h, eluate to mass spectrometry; settings: one partner purified
# T3 construct: staphylococcal protein A as it is present in strain MRSA252; The lysate of MRSA252 can hold only the native protein A, not the recombinant mutant SpA5; also called SpA; source: endogenous, MRSA252 ultrasonically fragmented and centrifuged, supernatant
binder,measurement,setting,value
"human antibody Abs-9 (antibody, V domains shown, germline VH3-48 gene; also called IgG-9; source: 293F cells, transfected (heavy and light chain plasmids, PEI), purified from supernatant on Protein A beads) VH: QVQLQQWGAGLLKPSETLSLTCAVYGGSFSGYYWSWIRQPPGKGLEWIGEINHSGSTNYNPSLKSRVTISVDTSKNQFSLKLSSVTAADTAVYYCARRSYGVKPFDYWGQGTLVTVSS VL: SSELTQDPAVSVALGQTVRITCQGDSLRTYYASWYQQKPGQAPALVIYGKNNRPSGIPDRFFGSSSGNTASLTITGAQAEDEADYYCNSRDSSGNHHPVFGGGTKLTVL",binding result,KLH-(N847-S857),binds
same,Kd,[1],1.96 nM
same,koff,[1],5.63e-07 s⁻¹
same,binding result,[2],binds
